# Reference: article PMC4928094, “The first characterization of multidrug and toxin extrusion (MATE/SLC47) proteins in zebrafish (Danio rerio)” (Scientific Reports, 2016)
# T1: zebrafish Mate3 (Danio rerio, UniProt A1L1P9)
# T1 sequence (A1L1P9 1-590): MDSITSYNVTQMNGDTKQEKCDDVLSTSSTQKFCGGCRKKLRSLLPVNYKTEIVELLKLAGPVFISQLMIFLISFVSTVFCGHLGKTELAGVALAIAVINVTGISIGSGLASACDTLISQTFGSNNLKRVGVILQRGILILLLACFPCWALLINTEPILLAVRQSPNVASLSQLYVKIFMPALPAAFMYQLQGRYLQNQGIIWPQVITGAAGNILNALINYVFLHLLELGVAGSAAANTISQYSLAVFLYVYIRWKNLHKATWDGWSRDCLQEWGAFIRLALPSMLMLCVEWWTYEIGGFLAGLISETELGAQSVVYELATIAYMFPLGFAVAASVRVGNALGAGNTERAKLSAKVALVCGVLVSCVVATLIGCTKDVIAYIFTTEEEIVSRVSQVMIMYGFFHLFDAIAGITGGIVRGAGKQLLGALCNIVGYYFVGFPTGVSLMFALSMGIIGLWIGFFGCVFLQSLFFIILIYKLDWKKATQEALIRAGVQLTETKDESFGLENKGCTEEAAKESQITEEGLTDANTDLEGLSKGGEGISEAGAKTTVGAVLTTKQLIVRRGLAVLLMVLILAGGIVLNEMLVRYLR
# Assays:
# zebrafish Mate6 = zebrafish Mate6 (Danio rerio, UniProt A1L2E7); experiment: DAPI inhibition assay, Mate6; format: cell-based; conditions: Mate6; inhibition of DAPI (1 μM) uptake; n = 3; NE = no effect in the compound solubility range; read-out: IC50
# Experimental: (§1) HEK293T cells were transiently transfected as described previously[31] using the PEI (polyethyleneimine) reagent in 48-well plates. Cells were in parallel transfected with pcDNA3.1/His/LacZ plasmid and transfection efficiency was evaluated 24 h after transfection with the LacZ staining protocol.
# (§2) HEK293T cells overexpressing respective single zebrafish Mate transporter were used for further experiments. […] DAPI fluorescence was measured at 360 and 460 nm […], respectively. The uptake into vector-transfected HEK293T cells (mock cells) was subtracted to obtain transporter-specific uptake.
# (§3) Inhibition assays using DAPI as a fluorescent substrate were performed in the same transport medium. […] Compounds tested for interaction were checked using at least four concentrations but only a representative concentration (with the highest response or the largest concentration in solubility range) is shown.
# (§4) For the purpose of IC50 calculations, data were fitted to the sigmoidal four-parameter dose-response model (variable slope),
# zebrafish Mate7 = zebrafish Mate7 (Danio rerio, UniProt U3PTD6); experiment: DAPI inhibition assay, Mate7; format: cell-based; conditions: Mate7; inhibition of DAPI (2.5 μM) uptake; n = 3; NE = no effect in the compound solubility range; read-out: IC50
# Experimental: as §1, §2, §3, §4
# zebrafish Mate3 = biological target: T1, zebrafish Mate3; experiment: DAPI inhibition assay, Mate3; format: cell-based; set-up: expressed in transfected cells; host or cells: HEK293T; conditions: Mate3; inhibition of DAPI (2.5 μM) uptake; n = 3; NE = no effect in the compound solubility range; read-out: IC50
# Experimental: as §1, §2, §3, §4
# zebrafish Mate8 = zebrafish Mate8 (Danio rerio, UniProt A0A8M6YZ09); experiment: DAPI inhibition assay, Mate8; format: cell-based; conditions: Mate8
# Chain of zebrafish Mate8 (A0A8M6YZ09 entry or part of it): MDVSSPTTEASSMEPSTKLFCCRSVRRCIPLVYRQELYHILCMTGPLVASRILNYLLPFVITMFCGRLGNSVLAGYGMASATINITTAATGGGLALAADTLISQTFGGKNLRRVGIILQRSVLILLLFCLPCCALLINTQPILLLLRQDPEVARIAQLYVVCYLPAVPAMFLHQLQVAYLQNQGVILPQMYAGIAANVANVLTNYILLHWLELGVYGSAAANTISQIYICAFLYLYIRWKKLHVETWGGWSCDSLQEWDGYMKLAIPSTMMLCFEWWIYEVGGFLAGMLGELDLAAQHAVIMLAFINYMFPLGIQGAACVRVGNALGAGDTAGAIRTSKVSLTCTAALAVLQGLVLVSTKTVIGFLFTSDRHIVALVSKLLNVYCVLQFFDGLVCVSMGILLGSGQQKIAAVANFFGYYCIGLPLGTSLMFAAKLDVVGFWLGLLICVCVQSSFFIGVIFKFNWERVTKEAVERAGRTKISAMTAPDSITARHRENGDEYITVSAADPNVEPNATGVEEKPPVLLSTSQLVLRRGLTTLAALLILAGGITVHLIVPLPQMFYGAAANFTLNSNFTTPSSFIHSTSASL
# Experimental: as §1, §2, §3, §4
# human MATE1 = human MATE1 ref 18; cited from earlier work
# zebrafish Mate4 = zebrafish Mate4 (Danio rerio, UniProt U3Q0C3); experiment: DAPI inhibition assay, Mate4; format: cell-based; conditions: Mate4; inhibition of DAPI (1 μM) uptake; n = 3; NE = no effect in the compound solubility range; read-out: IC50
# Chain of zebrafish Mate4 (U3Q0C3 entry or part of it): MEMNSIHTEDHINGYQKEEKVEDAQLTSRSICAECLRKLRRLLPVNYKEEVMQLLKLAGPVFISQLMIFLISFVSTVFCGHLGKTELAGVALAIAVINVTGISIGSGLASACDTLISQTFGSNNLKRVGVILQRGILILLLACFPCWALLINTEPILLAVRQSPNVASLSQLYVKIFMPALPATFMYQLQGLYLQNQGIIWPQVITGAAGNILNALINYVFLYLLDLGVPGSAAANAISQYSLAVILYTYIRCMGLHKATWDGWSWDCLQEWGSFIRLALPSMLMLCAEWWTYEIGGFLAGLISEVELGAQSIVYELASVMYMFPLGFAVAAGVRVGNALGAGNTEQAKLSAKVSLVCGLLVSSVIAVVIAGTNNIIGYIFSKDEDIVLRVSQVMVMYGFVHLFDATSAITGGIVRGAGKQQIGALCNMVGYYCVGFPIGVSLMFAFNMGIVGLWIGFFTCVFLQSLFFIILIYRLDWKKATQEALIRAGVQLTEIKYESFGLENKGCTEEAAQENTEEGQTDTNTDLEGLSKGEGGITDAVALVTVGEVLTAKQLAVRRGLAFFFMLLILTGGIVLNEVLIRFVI
# Experimental: as §1, §2, §3, §4
# [1] = substrate: CN(C)c1ccc(/C=C/c2cc[n+](C)cc2)cc1; experiment: cells, lysate or membranes; conditions: dye uptake, HEK293T, mean ± SD
# Experimental: (§5) Calibration curves for all substrates were generated in 0.1% SDS and in the cell matrix dissolved in 0.1% SDS. Resulting linear calibration curves were the same in the SDS and in the dissolved cell matrix. Using the calibration curves, uptake was expressed as pmol of substrate per mg of protein per minute. Total cell protein content was determined according to the Bradford method[33].
# (§6) All assays were performed in 3–5 independent experiments run in triplicates. […] All calculations were performed using GraphPad Prism 5.00 for Windows (GraphPad Software, San Diego, California, USA) as described below. The kinetic parameters, Km and Vmax values were calculated using the Michaelis-Menten equation,
# (§7) where V is velocity (picomoles of substrate per milligram of proteins per minute), Vmax is maximal velocity, [S] is substrate concentration and Km is the Michaelis Menten constant.
# [2] = substrate: N=C(N)NC(=O)c1nc(Cl)c(N)nc1N; experiment: cells, lysate or membranes; conditions: dye uptake, HEK293T, mean ± SD
# Experimental: as §5, §6, §7
# [3] = substrate: COc1ccc2cc3[n+](cc2c1OC)CCc1cc2c(cc1-3)OCO2; experiment: cells, lysate or membranes; conditions: dye uptake, HEK293T, mean ± SD
# Experimental: as §5, §6, §7
# [4] = substrate: COC(=O)c1ccccc1-c1c2ccc(=N)cc-2oc2cc(N)ccc12; experiment: cells, lysate or membranes; conditions: dye uptake, HEK293T, mean ± SD
# Experimental: as §5, §6, §7
# [5] = other: Mate3, triplicate, representative experiment
molecule,measurement,setting,value
"C[n+]1ccc(-c2ccccc2)cc1 [MPP^+, 1-methyl-4-phenylpyridinium, reference compound]",IC50,zebrafish Mate6,27.9 µM
same,IC50,zebrafish Mate7,93.6 µM
same,IC50,zebrafish Mate3,2.43 mM
same,interaction strength,zebrafish Mate8; class by IC50 of DAPI uptake inhibition,weak (IC50 of 100–999 μM was classified as weak interaction)
same,IC50,"zebrafish Mate8; inhibition of DAPI (1 μM) uptake, n = 3, NE = no effect in the compound solubility range, read-out: IC50",978 µM
same,Km,human MATE1,100 µM
same,IC50,zebrafish Mate4,434 µM
zebrafish Mate3 (Danio rerio) (protein) MDSITSYNVTQMNGDTKQEKCDDVLSTSSTQKFCGGCRKKLRSLLPVNYKTEIVELLKLAGPVFISQLMIFLISFVSTVFCGHLGKTELAGVALAIAVINVTGISIGSGLASACDTLISQTFGSNNLKRVGVILQRGILILLLACFPCWALLINTEPILLAVRQSPNVASLSQLYVKIFMPALPAAFMYQLQGRYLQNQGIIWPQVITGAAGNILNALINYVFLHLLELGVAGSAAANTISQYSLAVFLYVYIRWKNLHKATWDGWSRDCLQEWGAFIRLALPSMLMLCVEWWTYEIGGFLAGLISETELGAQSVVYELATIAYMFPLGFAVAASVRVGNALGAGNTERAKLSAKVALVCGVLVSCVVATLIGCTKDVIAYIFTTEEEIVSRVSQVMIMYGFFHLFDAIAGITGGIVRGAGKQLLGALCNIVGYYFVGFPTGVSLMFALSMGIIGLWIGFFGCVFLQSLFFIILIYKLDWKKATQEALIRAGVQLTETKDESFGLENKGCTEEAAKESQITEEGLTDANTDLEGLSKGGEGISEAGAKTTVGAVLTTKQLIVRRGLAVLLMVLILAGGIVLNEMLVRYLR,Km,[1]; [5],13.4 ± 1.55 µM
same,Vmax,[1]; [5],296 ± 14.0 pmol/mg protein/min
same,Km,[2]; [5],33.4 ± 4.57 µM
same,Vmax,[2]; [5],53.1 ± 4.0 pmol/mg protein/min
same,Km,[3]; [5],14.4 ± 5.14 µM
same,Vmax,[3]; [5],242 ± 46.9 pmol/mg protein/min
same,Km,[4]; [5],8.52 ± 1.25 µM
zebrafish Mate6 (Danio rerio) (protein) MPEAGGPLANTEQITEATAPSSKLLGCSCVRRWVPLAYREELYHVLCLTGPLLISRILSFLLPFVTTIFCGHLGNAELAGYALASATVNVTTTATGCGLALACDTLVSQTFGSKNHKRVGEILQRSMLILLLFCLPCWAILINAESILLALKQEPEVARIAQLYVTAYLPAVPAMFLHYLQVSYLQNQGIILPQMYTAVAANILNVATNYILLHAMKLGVKGSAAANSISQITICLLLFAYIRWKKLHLKTWGGWSTASLQEWGSYMKLAIPSTLMLCFEWWIYEIGGFLAGMLGEVDLAAQHVLLEIGSIAYMFPLGVHAAACVRVGNALGAGDTVRALITSKVTLMISGILAFAQGIGIALTKSKLGYIFTSDESIVAIVSQNLTLYVFLQFFDALVCVCSGILLGAGKQKIAAVSNLICYYCIGLPVGISLMFLAELRILGLWLGLLICVIIQTCFFTTLIFKLDWKKVTEQAQKRAGKHAKVVCLPKAPLIGPVVETLVSEDQDNTEQTDGTSSIPEPWDDITGNKAQLTSSSSEVSSYIQVSTQDQDKLASECGEGQPKVLLSIKQLVLRRGLTLLITLLILIAGITVHVVCPLPEHSVQRQSNFTNDSGNFSTPFSILNITMS,Km,[1]; other: Mate6,6.23 ± 1.02 µM
same,Vmax,[1]; other: Mate6,160 ± 10.8 pmol/mg protein/min
same,Km,[2]; other: Mate6,11.1 ± 2.12 µM
same,Vmax,[2]; other: Mate6,24.8 ± 1.54 pmol/mg protein/min
same,Km,[3]; other: Mate6,8.35 ± 1.00 µM
same,Vmax,[3]; other: Mate6,215 ± 9.72 pmol/mg protein/min
same,Km,[4]; other: Mate6,1.73 ± 0.16 µM
zebrafish Mate7 (Danio rerio) (protein) MDVSSPGTDNLSMEPSAKLFCCGFMRRCIPLVYREELYHILRMTGPLLVCRFLNFLLFFVVTMFCGRLGNTVLAGYAMASATINVTAAATGLGLALACDTLVSQTFGSKNLLRVGIILQRGIVILTLFSLPCWALLVNTQPLLLYLGQEPEVARIAQLYVVVYLPAIPAMFLYQLQLSYLQNQGVIKPQMYASAVANVANVIANYFLLYWWDFGVYGSAAANTFAQVFNCFALFCFIRWQKLHEKTWGGWSLEALQDWGSYMKLAIPSTLMTCFEWWIYEVGGFLAGMLSEVDLAAQHVVIMLAYINYMIPLGMQGAACVRVGNALGAGETAAAILTSKVSLISAAVIAIIQGFVLGSTKTVIGYIFTSDESITELVSQLLNIYCPLQFFNGILCVGMGVLLGTGQQKIAAIANLFGYYCVGLPSSIVLMFTAGLQVAGFWLGLLIAVFLLAIFFTVAIFKLNWKKMTEEAIARTGKSANGAANGTMTTEFCSNHRNSFYQVVLNAENGNGYMVVSSQDQDERLNSTAVPEEPNVTGVEEKPPVLLSTTQLVLRRGLTTVAALLILAVGIIIHLTVPLPQVSYGAGANYTVDSNFTTANPIYSTSFI,Km,[1]; other: Mate7,3.51 ± 0.27 µM
same,Vmax,[1]; other: Mate7,52.3 ± 1.26 pmol/mg protein/min
same,Km,[2]; other: Mate7,20.6 ± 4.20 µM
same,Vmax,[2]; other: Mate7,19.8 ± 1.84 pmol/mg protein/min
same,Km,[3]; other: Mate7,1.76 ± 0.38 µM
same,Vmax,[3]; other: Mate7,28.0 ± 2.39 pmol/mg protein/min
same,Km,[4]; other: Mate7,0.22 ± 0.03 µM
